Target: (SIM)m, m = 1
Assay: ITC

- Kd: 10 µM
Substance: (SUMO)m, m = 1 (from UniProt P55854 1-92) (natural protein)

Source: PMC4967043
